For the assay, the target named is linked SSB dimer with the D. radiodurans linker (SSB-LD-Drl) (E. coli | D. radiodurans). Kind of assay: AUC.

Regarding “linked SSB dimer with the D. radiodurans linker (SSB-LD-Drl)”, the stoichiometry N is 2.

The term stoichiometry N denotes a count of units in the complex or per binding partner.
